# Measurements taken from patent US20170081417A1 (Kyowa Kirin, published 2017).
# No end group written: not given here.
# T1: human OX40 (CD134), full length, expressed on cells (activated human T cells); EL4-OX40 and CHO-OX40 … (human, UniProt P43489 29-277)
# T1 sequence: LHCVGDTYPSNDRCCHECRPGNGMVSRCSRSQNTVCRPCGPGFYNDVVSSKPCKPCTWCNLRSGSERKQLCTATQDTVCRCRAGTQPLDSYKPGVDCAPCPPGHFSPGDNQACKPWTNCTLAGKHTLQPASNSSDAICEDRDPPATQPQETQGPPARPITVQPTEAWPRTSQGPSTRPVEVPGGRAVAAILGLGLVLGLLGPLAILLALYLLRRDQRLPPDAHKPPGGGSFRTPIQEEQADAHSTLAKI
# T2: human OX40 peptide 112B (human, also: conjugated to KLH via maleimide linker)
# T2 peptide: RAGTQPLDSYKPGVDC
# T3: human OX40 peptide 112C (human, also: conjugated to KLH via maleimide linker)
# T3 peptide: LAGKHTLQPASNSSDAIC
# T4: human OX40 peptide 112A (human, also: conjugated to KLH via maleimide linker)
# T4 peptide: RPAGPGFYNDVVSSKPC
# B1: 112Y55 human anti-human OX40 monoclonal antibody (hybridoma ATCC No. PTA-7220) (antibody, V domains shown)
# VH: QITLKESGPTLVKPTQTLTLSCTFSGFSLSTSGVGVGWIRQPPGKALEWLALIHWDDAERYSPSLKSRLTITKDTSKNQVVLTMTNMDLVDTATYYCAHTRGAFDIWGQGTMVTVSS
# VL: EIVLTQSPGTLSLSPGERAILSCRASQSVSSSFLAWYQQKPGQAPRLLIYGAFSRATGIPDRFSGSGSGTDFTLTISRLEPEDFAVYYCQQYDSSRTFGQGTKVEIK
# B2: 112Y131 human anti-human OX40 monoclonal antibody (hybridoma ATCC No. PTA-7218) (antibody, V domains shown)
# VH: QITLKESGPTLVKPTQTLTLTCTFSGFSLSTSGVGVGWIRQPPGKALEWLALIYWDDHSPYSPSLKSRLTITKDTSKNQVVLTMTNMDPVDTATYYCARTRGAFDIWGQGTMVTVSS
# VL: EIVLTQSPATLSLSPGERATLSCRASQGVSSYLAWYQQKPGQAPRLLIYDASNRATGIPARFSGSGPGTDFTLTISSLEPEDFAVYYCQQRSNWHPTFGQGTKVEIK
# Experiments:
# [1] = target: T5, human OX40 extracellular domain fused to the Fc portion of human IgG1 (hOX40:hFc) (human); assay: ELISA, blocking of OX40L-FLAG binding to coated hOX40:hFc
# T5 construct: Made in Tn5 insect cells; also called OX40-hIgG1; human OX40:hIgG1 fusion protein
# T5 sequence (chain, as listed by the source limits assumed): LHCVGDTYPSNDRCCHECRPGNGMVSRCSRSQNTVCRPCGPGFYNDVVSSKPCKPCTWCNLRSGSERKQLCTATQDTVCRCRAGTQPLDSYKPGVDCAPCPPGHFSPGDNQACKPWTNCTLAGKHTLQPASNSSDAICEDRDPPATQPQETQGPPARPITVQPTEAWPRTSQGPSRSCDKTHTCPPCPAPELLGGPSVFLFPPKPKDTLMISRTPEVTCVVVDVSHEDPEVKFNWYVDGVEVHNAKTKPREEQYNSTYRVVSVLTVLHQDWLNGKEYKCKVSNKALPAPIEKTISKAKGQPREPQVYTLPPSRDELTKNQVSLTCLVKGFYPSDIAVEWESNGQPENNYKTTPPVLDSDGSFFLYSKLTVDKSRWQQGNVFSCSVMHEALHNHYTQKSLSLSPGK
# Method: (§1) The ability of 112F32, 112V8, 112Y131, 112Y55, and 112Z5 to block soluble hOX40L binding to coated hOX40:hFc fusion protein was tested using an ELISA protocol (FIG. 5A, Table 3). The plates were coated with hOX40:hFc and after blocking non-specific sites the anti-OX40 antibodies were allowed to bind. Without washing OX40L-FLAG was added to the wells. Bound ligand was detected with anti-FLAG-HRP secondary antibody. Percent inhibition was determined using the following formula (100−(OD sample/OD maximum OX40L binding))*100. 112V8, 112Y55, and 112Y131 prevented 85% of the binding of soluble OX40L to hOX40:hFc. 112F32 prevented approximately 70% of the binding of soluble hOX40L to hOX40:hFc and 112Z5 blocked 67% of the maximal binding.
# [2] = target: T5, human OX40 extracellular domain fused …; assay: ELISA, OX40L-FLAG binding to coated hOX40:hFc, anti-FLAG-HRP
# Method: as §1
# [3] = target: T1, human OX40 (CD134), full length, …; assay: cell-based or functional assay
# [4] = target: T2, human OX40 peptide 112B; assay: ELISA on coated KLH-conjugated peptide
# Method: (§2) Antibody titers, specificity, and production by hybridomas were determined by ELISA. In brief, 96 well flat bottom plates were coated with 50 μl of hOX40:hFc at 5 μg/ml in carbonate buffer (pH 9.4) overnight at 4° C. or at 37° C. for one hour. After washing twice with PBS/0.1% Tween 20, plates were blocked with PBS/1% BSA/0.1% Tween20 at 37° C. for one hour. The serum, supernatant, or purified antibody was diluted in blocking buffer, added to the wells, and the plates were incubated for one hour at 37° C. The plates were washed four times with PBS/0.1% Tween 20 and the peroxidase conjugated sheep anti-human kappa detection antibody (The Binding Site, Birmigham, UK) was added at a dilution of 1:2000. Following one hour incubation at 37° C., the plates were washed and the TMB (Sigma) substrate was added and incubated at room temperature for ten to thirty minutes. The reaction was stopped with H₂SO₄ (LabChem) and the optical density was measured at 450 nm by a microplate reader.
# (§3) The peptides were generated by A & A Lab, LLC and conjugated to keyhole limpet hemocyanin (“KLH”) with a maleimide linker following the manufacturer's instructions (Pierce). The peptides were coated at 10 μg/ml in carbonate buffer to 96 well Maxisorp ELISA plates (Nunc) at 4° C. overnight. The plate was washed with PBS/0.1% Tween 20 and then blocked with Casein buffer (Pierce) for three hours at room temperature. Candidate antibodies were added at 10 μg/ml diluted in 10% Casein in PBS/0.1% Tween 20. The remainder of the ELISA was performed as described for the OX40 specific antibody detection ELISA.
# [5] = target: T3, human OX40 peptide 112C; assay: ELISA on coated KLH-conjugated peptide
# Method: as §2, §3
# [6] = target: T4, human OX40 peptide 112A; assay: ELISA on coated KLH-conjugated peptide
# Method: as §2, §3
# [7] = target: T1, human OX40 (CD134), full length, …; assay: flow cytometry titration on activated human T cells, anti-human IgG-PE
# Method: Following twenty minute incubation on ice, the cells were washed once and fixed ten minutes with 1% paraformaldehyde. After a final wash the cells were resuspended in staining buffer and the samples were acquired using FACScan or FACS Calibur flow cytometers (Becton Dickinson Biosciences, Palo Alto, Calif.), and the data were analyzed using Cellquest (Becton Dickinson Biosciences) or Flow Jo (TreeStar, Inc., San Carlos, Calif.) software. The activated T cells were also stained with mouse anti-human OX40 antibody L106 (Becton Dickinson), which was directly conjugated to phycoerythrin or whose binding was detected with anti-mouse IgG-PE (Southern Biotechnology Associates.) OX40L Blocking Assays: To determine if the anti-human OX40 antibodies could block OX40L binding to soluble OX40 both ELISA and flow cytometric protocols were used. In the ELISA 96 well Nunc flat bottom plates were coated with recombinant soluble hOX40:hFc at 2 μg/ml in carbonate buffer (pH9.4) for one hour at 37° C. The plates were washed with PBS/0.1% Tween 20 and Superblock (Pierce) was added to the wells to block non-specific binding. The test antibodies were diluted to 1 μg/ml in PBS/Tween and added to the plates. After one hour incubation at 37° C., FLAG tagged recombinant soluble human OX40L (Alexis Biochemicals, San Diego, Calif.) was added to the appropriate wells without washing out the anti-OX40 antibodies. Following one hour incubation, the plates were washed and an anti-FLAG-peroxidase conjugated antibody (Sigma) was added to the wells for one hour at 37° C. The TMB substrate was added, after ten minutes the reaction was stopped with H₂SO₄, and the results were read at 450 nm using a microplate reader. In the flow cytometric assay, human CD4+ T cells were purified and activated with PHA+IL2 for two days. The cells were washed and resuspended in staining buffer and then incubated with increasing amounts of human anti-human OX40 antibodies for twenty minutes on ice, from 0.005-50 μg/ml. Soluble recombinant OX40L-FLAG was then added to the cells. The cells were washed and incubated with anti-FLAG conjugated to PE (Sigma). After another wash, the cells were fixed with 1% paraformaldehyde and analyzed on a FACScan or FACScalibur.
Binder,IC50 [1] [µg/mL],percent inhibition of OX40L binding [2] [%],ADCC % Lysis at 10 µg/ml [3] [%],binding result [4],binding result [5],binding result [6],BMAX Geo Mean [7],Kd [7] [nM]
B1,0.073,85,54.2,no binding (tested: 10 µg/ml),no binding (tested: 10 µg/ml),no binding (tested: 10 µg/ml),162 geometric mean fluorescence,14
B2,0.069,85,18,no binding (tested: 10 µg/ml),no binding (tested: 10 µg/ml),no binding (tested: 10 µg/ml),171 geometric mean fluorescence,25
